± gives the standard deviation of the averaged measurements.
B1: library; a variant is named by its letters at N, in order (parent)
chain: GCUGUCACCGAGAAACUGUGAAGUAUAUCUUAAACCUGGGCACUUAAAAGAUAUAUGGAGUUAGUAGUGCAACCUGCUCGGUCUGAUGAGUCCNNNNNNGGACGAAACAGC

How the values were obtained:
cyclic di-GMP [1] = variants of: B1; experiment: normalized RNA/DNA level without ligand (relative to sTRSVctl = 100) (log10 (% of sTRSVctl)); HEK293T; ligand: cyclic di-GMP (c-di-GMP-II aptamer); higher = less ribozyme self-cleavage, higher mRNA level; details: reporter: mCherry (pCS4076), ligand present: no
How it was run: (§1)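 Library plasmids encoding reporter-linked ribozyme switches (mCherry, or eGFP for some folinic acid experiments) were transfected into HEK293T at 4 µg per 6-well well. Ligand, when used, was added 1 h before transfection. Total RNA was extracted with EDTA 72 h later, then reverse-transcribed, amplified, barcoded and sequenced. RNA level was RNA reads over DNA reads, divided by a spiked-in non-cleaving control (or the top 25 sequences), ×100, log10; only sequences with ≥100 DNA reads were kept.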

cyclic di-GMP [2] = variants of: B1; experiment: normalized RNA/DNA level with ligand (relative to sTRSVctl = 100) (log10 (% of sTRSVctl)); HEK293T; ligand: cyclic di-GMP (c-di-GMP-II aptamer); ligand concentration (+) RNA-Seq: 1 mM; higher = less ribozyme self-cleavage, higher mRNA level; details: reporter: mCherry (pCS4076), ligand present: yes
How it was run: as §1

Row | Variant | normalized RNA/DNA level without ligand (log10) (cyclic di-GMP [1]) | normalized RNA/DNA level with ligand (log10) (cyclic di-GMP [2])
1 | GCUGUCACCGAGAAACUGUGAAGUAUAUCUUAAACCUGGGCACUUAAAAGAUAUAUGGAGUUAGUAGUGCAACCUGCUCGGUCUGAUGAGUCCUCCGAAGGACGAAACAGC [UCCGAA] | 1.48 ± 0.015 | 1.69 ± 0.17
2 | GCUGUCACCGAGAAACUGUGAAGUAUAUCUUAAACCUGGGCACUUAAAAGAUAUAUGGAGUUAGUAGUGCAACCUGCUCGGUCUGAUGAGUCCUCCGAGGGACGAAACAGC [UCCGAG] | 1.64 ± 0.082 | 1.79 ± 0.11
3 | GCUGUCACCGAGAAACUGUGAAGUAUAUCUUAAACCUGGGCACUUAAAAGAUAUAUGGAGUUAGUAGUGCAACCUGCUCGGUCUGAUGAGUCCGACCGUGGACGAAACAGC [GACCGU] | 1.74 ± 0.066 | 1.86 ± 0.03
4 | GCUGUCACCGAGAAACUGUGAAGUAUAUCUUAAACCUGGGCACUUAAAAGAUAUAUGGAGUUAGUAGUGCAACCUGCUCGGUCUGAUGAGUCCAUAGCUGGACGAAACAGC [AUAGCU] | 1.68 ± 0.024 | 1.78 ± 0.069
5 | GCUGUCACCGAGAAACUGUGAAGUAUAUCUUAAACCUGGGCACUUAAAAGAUAUAUGGAGUUAGUAGUGCAACCUGCUCGGUCUGAUGAGUCCAUAGGAGGACGAAACAGC [AUAGGA] | 1.35 ± 0.13 | 1.55 ± 0.15
6 | GCUGUCACCGAGAAACUGUGAAGUAUAUCUUAAACCUGGGCACUUAAAAGAUAUAUGGAGUUAGUAGUGCAACCUGCUCGGUCUGAUGAGUCCUCAGCCGGACGAAACAGC [UCAGCC] | 1.818 ± 0.0024 | 1.88 ± 0.14
7 | GCUGUCACCGAGAAACUGUGAAGUAUAUCUUAAACCUGGGCACUUAAAAGAUAUAUGGAGUUAGUAGUGCAACCUGCUCGGUCUGAUGAGUCCAGUCCAGGACGAAACAGC [AGUCCA] | 1.663 ± 0.0054 | 1.78 ± 0.049
8 | GCUGUCACCGAGAAACUGUGAAGUAUAUCUUAAACCUGGGCACUUAAAAGAUAUAUGGAGUUAGUAGUGCAACCUGCUCGGUCUGAUGAGUCCCCUAGGGGACGAAACAGC [CCUAGG] | 1.79 ± 0.045 | 1.84 ± 0.13
9 | GCUGUCACCGAGAAACUGUGAAGUAUAUCUUAAACCUGGGCACUUAAAAGAUAUAUGGAGUUAGUAGUGCAACCUGCUCGGUCUGAUGAGUCCGUCGAAGGACGAAACAGC [GUCGAA] | 1.49 ± 0.068 | 1.65 ± 0.11
10 | GCUGUCACCGAGAAACUGUGAAGUAUAUCUUAAACCUGGGCACUUAAAAGAUAUAUGGAGUUAGUAGUGCAACCUGCUCGGUCUGAUGAGUCCCCGCUAGGACGAAACAGC [CCGCUA] | 1.43 ± 0.078 | 1.68 ± 0.091
11 | GCUGUCACCGAGAAACUGUGAAGUAUAUCUUAAACCUGGGCACUUAAAAGAUAUAUGGAGUUAGUAGUGCAACCUGCUCGGUCUGAUGAGUCCCCUGAAGGACGAAACAGC [CCUGAA] | 1.32 ± 0.099 | 1.61 ± 0.077
12 | GCUGUCACCGAGAAACUGUGAAGUAUAUCUUAAACCUGGGCACUUAAAAGAUAUAUGGAGUUAGUAGUGCAACCUGCUCGGUCUGAUGAGUCCUGCUUCGGACGAAACAGC [UGCUUC] | 1.766 ± 0.017 | 1.89 ± 0.093
13 | GCUGUCACCGAGAAACUGUGAAGUAUAUCUUAAACCUGGGCACUUAAAAGAUAUAUGGAGUUAGUAGUGCAACCUGCUCGGUCUGAUGAGUCCUGGCGUGGACGAAACAGC [UGGCGU] | 1.6 ± 0.03 | 1.81 ± 0.16
14 | GCUGUCACCGAGAAACUGUGAAGUAUAUCUUAAACCUGGGCACUUAAAAGAUAUAUGGAGUUAGUAGUGCAACCUGCUCGGUCUGAUGAGUCCUACUAAGGACGAAACAGC [UACUAA] | 1.71 ± 0.014 | 1.81 ± 0.061
15 | GCUGUCACCGAGAAACUGUGAAGUAUAUCUUAAACCUGGGCACUUAAAAGAUAUAUGGAGUUAGUAGUGCAACCUGCUCGGUCUGAUGAGUCCACUCUAGGACGAAACAGC [ACUCUA] | 1.6 ± 0.046 | 1.77 ± 0.081
16 | GCUGUCACCGAGAAACUGUGAAGUAUAUCUUAAACCUGGGCACUUAAAAGAUAUAUGGAGUUAGUAGUGCAACCUGCUCGGUCUGAUGAGUCCGAUCUUGGACGAAACAGC [GAUCUU] | 1.673 ± 0.0037 | 1.8 ± 0.091
17 | GCUGUCACCGAGAAACUGUGAAGUAUAUCUUAAACCUGGGCACUUAAAAGAUAUAUGGAGUUAGUAGUGCAACCUGCUCGGUCUGAUGAGUCCGCCACGGGACGAAACAGC [GCCACG] | 1.68 ± 0.051 | 1.81 ± 0.12
18 | GCUGUCACCGAGAAACUGUGAAGUAUAUCUUAAACCUGGGCACUUAAAAGAUAUAUGGAGUUAGUAGUGCAACCUGCUCGGUCUGAUGAGUCCCAUGAUGGACGAAACAGC [CAUGAU] | 1.57 ± 0.027 | 1.73 ± 0.13
19 | GCUGUCACCGAGAAACUGUGAAGUAUAUCUUAAACCUGGGCACUUAAAAGAUAUAUGGAGUUAGUAGUGCAACCUGCUCGGUCUGAUGAGUCCGGCCCCGGACGAAACAGC [GGCCCC] | 1.92 ± 0.045 | 2 ± 0.13
20 | GCUGUCACCGAGAAACUGUGAAGUAUAUCUUAAACCUGGGCACUUAAAAGAUAUAUGGAGUUAGUAGUGCAACCUGCUCGGUCUGAUGAGUCCGGCCCUGGACGAAACAGC [GGCCCU] | 1.877 ± 0.012 | 1.94 ± 0.057
21 | GCUGUCACCGAGAAACUGUGAAGUAUAUCUUAAACCUGGGCACUUAAAAGAUAUAUGGAGUUAGUAGUGCAACCUGCUCGGUCUGAUGAGUCCGUCUCAGGACGAAACAGC [GUCUCA] | 1.7 ± 0.035 | 1.83 ± 0.14
22 | GCUGUCACCGAGAAACUGUGAAGUAUAUCUUAAACCUGGGCACUUAAAAGAUAUAUGGAGUUAGUAGUGCAACCUGCUCGGUCUGAUGAGUCCACCGUGGGACGAAACAGC [ACCGUG] | 1.57 ± 0.096 | 1.77 ± 0.097
23 | GCUGUCACCGAGAAACUGUGAAGUAUAUCUUAAACCUGGGCACUUAAAAGAUAUAUGGAGUUAGUAGUGCAACCUGCUCGGUCUGAUGAGUCCUGUAGAGGACGAAACAGC [UGUAGA] | 1.67 ± 0.045 | 1.82 ± 0.12
24 | GCUGUCACCGAGAAACUGUGAAGUAUAUCUUAAACCUGGGCACUUAAAAGAUAUAUGGAGUUAGUAGUGCAACCUGCUCGGUCUGAUGAGUCCGCCCAUGGACGAAACAGC [GCCCAU] | 1.67 ± 0.036 | 1.85 ± 0.15
25 | GCUGUCACCGAGAAACUGUGAAGUAUAUCUUAAACCUGGGCACUUAAAAGAUAUAUGGAGUUAGUAGUGCAACCUGCUCGGUCUGAUGAGUCCGCGCCCGGACGAAACAGC [GCGCCC] | 1.79 ± 0.025 | 1.89 ± 0.038
26 | GCUGUCACCGAGAAACUGUGAAGUAUAUCUUAAACCUGGGCACUUAAAAGAUAUAUGGAGUUAGUAGUGCAACCUGCUCGGUCUGAUGAGUCCGUGGGUGGACGAAACAGC [GUGGGU] | 1.66 ± 0.081 | 1.85 ± 0.064
